Where two headings read alike, the source gives them in different places.
Tests used:
[1] = target: human OX40 receptor, cell-expressed (DO11.10-hOX40) (human) (UniProt P43489); assay: cell-based or functional assay
[2] = target: human OX40 receptor, cell-expressed (DO11.10-hOX40) (human) (UniProt P43489); assay: cell-based or functional assay; remark: listed apart in the source
[3] = target: human OX40 receptor, cell-expressed (DO11.10-hOX40) (human) (UniProt P43489); assay: cell-based or functional assay; remark: listed apart in the source
[4] = target: human OX40 receptor, cell-expressed (DO11.10-hOX40) (human) (UniProt P43489); assay: cell-based or functional assay; remark: listed apart in the source
[5] = target: cynomolgus OX40 receptor, cell-expressed (DO11.10-cOX40) (cynomolgus); assay: flow cytometry on DO11.10-cOX40 cells
[6] = target: human OX40 receptor, cell-expressed (DO11.10-hOX40) (human) (UniProt P43489); assay: flow cytometry on DO11.10-hOX40 cells

human OX40 receptor, cell-expressed (DO11.10-hOX40) (human), sequence (P43489 29-277): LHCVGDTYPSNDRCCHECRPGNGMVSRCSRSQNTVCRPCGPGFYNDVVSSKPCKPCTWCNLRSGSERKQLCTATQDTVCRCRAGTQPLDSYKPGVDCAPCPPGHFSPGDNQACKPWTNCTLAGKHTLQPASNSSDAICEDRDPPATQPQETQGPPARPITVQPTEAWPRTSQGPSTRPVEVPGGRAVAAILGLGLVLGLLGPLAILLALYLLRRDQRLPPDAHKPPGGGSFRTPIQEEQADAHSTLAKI
cynomolgus OX40 receptor, cell-expressed (DO11.10-cOX40) (cynomolgus), sequence (P43489 other isoform, or with tags, fused parts or gaps): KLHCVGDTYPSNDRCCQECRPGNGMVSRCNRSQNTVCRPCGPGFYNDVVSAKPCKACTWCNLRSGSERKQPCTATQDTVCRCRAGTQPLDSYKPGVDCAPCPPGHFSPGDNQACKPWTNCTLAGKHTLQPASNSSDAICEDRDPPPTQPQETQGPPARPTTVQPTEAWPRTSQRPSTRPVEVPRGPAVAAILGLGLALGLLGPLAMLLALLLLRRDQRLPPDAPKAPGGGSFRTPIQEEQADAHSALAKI

EC50 of IL-2 release, Xlink (anti-hCH2) [1]	Max response, Xlink (anti-hCH2) [1]	EC50 of IL-2 release, Xlink (anti-hCH2) [2]	Max response, Xlink (anti-hCH2) [2]	EC50 of IL-2 release, HPAC cells present, Xlink (anti-hCH2) [3]	EC50 of IL-2 release, Xlink (anti-hCH2) [3]	Max response, HPAC cells present, Xlink (anti-hCH2) [3]	Max response, Xlink (anti-hCH2) [3]	EC50 of IL-2 release, Xlink (anti-hCH2) [4]	Max response, Xlink (anti-hCH2) [4]	EC50 [5]	EC50 [6]	EC50 of IL-2 release, crosslinked (anti-human CH2 mAb) [3]	Max response, crosslinked [3]	Substance
0.196 nM	7200 mIL-2 pg/ml	0.153 pM	25000 mIL-2 pg/ml	0.228 nM	0.199 nM	14800 mIL-2 pg/ml	21900 mIL-2 pg/ml	0.14 nM	24500 mIL-2 pg/ml	–	–	–	–	G1/11D4 (antibody)
–	–	–	–	–	–	–	–	–	–	0.213 nM	0.814 nM	0.0493 nM	26700 hIL-2 pg/ml	G1AA/11D4 (antibody)
